US20040053299A1, “Regulated activation of cell-membrane receptors by metal-chelating agonists” (priority 2003, published 2004)
Residue numbers refer to the chain shown, from its start.

What was measured:
human TPO receptor H499L = target: T1, human TPO receptor H499L (Homo sapiens, UniProt P40238, H499L); assay: luciferase reporter in HepG2 cells, H499L point mutant of human TPO receptor; format: cell-based; conditions: H499L point mutation in the human TPO receptor
T1 construct: expressed in transfected cells; host or cells: HepG2
T1 sequence (P40238 26-635 H499L): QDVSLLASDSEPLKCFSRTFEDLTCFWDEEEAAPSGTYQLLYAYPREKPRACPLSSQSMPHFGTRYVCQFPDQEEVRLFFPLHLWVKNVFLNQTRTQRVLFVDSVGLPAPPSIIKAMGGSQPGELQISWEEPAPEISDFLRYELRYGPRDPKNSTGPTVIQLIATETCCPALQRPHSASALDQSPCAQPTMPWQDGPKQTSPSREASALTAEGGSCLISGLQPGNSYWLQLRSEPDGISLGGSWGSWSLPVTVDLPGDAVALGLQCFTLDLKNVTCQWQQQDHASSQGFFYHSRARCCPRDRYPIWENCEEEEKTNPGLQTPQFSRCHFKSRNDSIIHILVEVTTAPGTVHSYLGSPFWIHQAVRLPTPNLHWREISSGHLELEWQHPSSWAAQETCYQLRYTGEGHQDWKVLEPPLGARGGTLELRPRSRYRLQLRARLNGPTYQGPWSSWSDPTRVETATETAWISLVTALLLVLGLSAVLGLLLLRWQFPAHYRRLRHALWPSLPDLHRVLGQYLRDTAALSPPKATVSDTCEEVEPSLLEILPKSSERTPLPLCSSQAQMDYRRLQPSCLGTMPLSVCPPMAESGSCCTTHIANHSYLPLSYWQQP
Description: (§1) To further investigate the activity of compounds of Formula (I), cDNA clones for cynomolgous monkey TPO receptor were isolated and sequenced. […] It was clear from these experiments that the compounds of Formula I show strict specificity for the human TPO receptor, a finding also confirmed by STAT activation assays of platelets from human and cyno origin. In order to examine the region of the TPO receptor required for compound activity, a series of human/cyno TPO-R chimeric receptors were transfected into HepG2 cells and tested for their response to compounds of Formula (I). […] To investigate the role of this specific transmembrane domain mutation on the activity of compounds of Formula (I), two point mutations were constructed: a) a H499L change into the human TPO receptor transmembrane domain, creating a receptor with human extracellular and cytoplasmic domains and a cyno receptor transmembrane domain and b) a L499H change into the cyno receptor transmembrane domain creating a chimera with cyno extracellular and cytoplasmic domains and a human transmembrane domain. […] Conversely, the L499H mutation in the cyno TPO receptor allowed it to be activated by both TPO and the compounds with potencies and efficacies similar to those seen on wild type human receptor. […]

HepG2 = assay: STAT-responsive luciferase reporter in HepG2 cells without transfected receptor; format: cell-based, human; conditions: HepG2 transfected with STAT-responsive luciferase reporter only, no TPO receptor
Method: (§2) International Application No. PCT/US99/30371, published as WO 00/35446 on Jun. 22, 2000, discloses that the TPO receptor can be activated by small molecule ligands of Formula (I).
(§3) In determining the efficacy and potency of the presently invented compounds as agonists of dimeric cell-surface receptors, a luciferase reporter gene assay configured in HepG2 cells was utilized (see Tian et al., Science 1998, 281, 257-259).
HepG2 cells were plated in 24-well plates in triplicates for overnight. The cells were then transfected with the indicated receptor construct, a GAS response element containing luciferase reporter, 8×118-TkLUC and STAT5b expression vector (a gift of Dr. James Ihle, Memphis, Tenn.) by Superfect method (QIAGEN, Valencia, Calif.) as instructed by the manufacturer. After an overnight recovery, the transfected cells were treated with 0.1% DMSO, TPO or compound of Example 4 at the indicated concentrations for 4-5 hrs. The cells were then lysed and the level of luciferase expression was measured by a plate reader.

human TPO receptor = target: T2, human TPO receptor (Homo sapiens, UniProt P40238); assay: luciferase reporter in HepG2 cells cotransfected with human TPO receptor; format: cell-based; conditions: HepG2 cotransfected with human TPO receptor expression vector and reporter
T2 construct: expressed in transfected cells; host or cells: HepG2
T2 sequence (P40238 26-635): T1 sequence (P40238 26-635 H499L) with L474H
Description: as §2, §3
Human Tpo receptor (hMPL) was cloned from HEL 92.1.7 cells (ATCC, Rockville, Md.) by PCR (forward primer: 5′-ACGAAGCTTAGCCAAGATGTCTCCTTGCTGGCAT-3′ and reverse primer: 5′-AGCCTCGAGTCAAGGCTGCTGCCAATAGCT-3′). The cloned full-length cDNA was confirmed by DNA sequencing analysis, then subcloned into HindIII-XhoI digested pSSF vector. The cynomolgous Tpo-R (cMPL) was cloned from bone marrow cDNA using the human 5′ and 3′ terminal coding sequences. The full-length cDNA was sequenced and subcloned into EcoRI digested pCDNA3. 1 (+) vector (Invitrogen, San Diego, Calif.). […]
HepG2 cells were plated in 24-well plates in triplicates for overnight. […] The cells were then lysed and the level of luciferase expression was measured by a plate reader.

cyno TPO receptor L499H = assay: luciferase reporter in HepG2 cells, L499H point mutant of cyno TPO receptor; format: cell-based, cynomolgous monkey; conditions: L499H mutation in the cyno TPO receptor
Description: as §1

receptor response (human TPO receptor H499L): little effect on the response
response, luciferase expression (human TPO receptor): large increase in luciferase expression
Substance: TPO: thrombopoietin, natural protein ligand of the TPO receptor
response, luciferase expression (HepG2): do not respond
receptor activation (cyno TPO receptor L499H): activated
